Columns and labels:
[1] = target: T1, Human glypican-3 on cells (Huh7, Hep3B, H446, HepG2; Hep3B xenograft tissue) (UniProt P51654 25-554); assay: flow cytometry; Hep3B cells
[2] = target: T1, Human glypican-3 on cells (Huh7, Hep3B, …); assay: flow cytometry; H446 cells

T1 sequence (P51654 25-554): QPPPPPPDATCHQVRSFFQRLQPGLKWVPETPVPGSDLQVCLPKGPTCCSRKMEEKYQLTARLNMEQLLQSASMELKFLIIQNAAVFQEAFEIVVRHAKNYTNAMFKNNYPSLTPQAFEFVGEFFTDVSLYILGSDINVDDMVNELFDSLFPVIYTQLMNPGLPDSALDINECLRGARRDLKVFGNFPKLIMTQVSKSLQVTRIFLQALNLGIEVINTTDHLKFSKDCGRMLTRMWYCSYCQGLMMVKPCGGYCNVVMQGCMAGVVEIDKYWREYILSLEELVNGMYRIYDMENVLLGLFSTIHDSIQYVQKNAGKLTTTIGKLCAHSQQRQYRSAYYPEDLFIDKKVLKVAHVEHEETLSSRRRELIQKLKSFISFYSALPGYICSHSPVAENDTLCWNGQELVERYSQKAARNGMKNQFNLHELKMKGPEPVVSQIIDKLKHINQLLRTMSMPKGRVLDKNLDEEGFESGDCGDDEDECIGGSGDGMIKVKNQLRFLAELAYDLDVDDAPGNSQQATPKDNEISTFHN

EC50 [1] [nM] | EC50 [2] [nM] | Binder
0.664 | 0.386 | ADX_6077_F02 tubulysin analog drug conjugate DAR1 (designed binder, tubulysin analog-linker (formula IV) on the cysteine of the C-terminal PC via maleimide) MGVSDVPRDLEVVAATPTSLLISWSDDYHAHRYYRITYGETGGNSPVQEFTVPGEHVTATISGLKPGVDYTITVYAVTYDGEKAATDWSISINYRTPCHHHHHH
0.537 | 0.573 | ADX_6912_G02 tubulysin analog drug conjugate DAR2 (designed binder, tubulysin analog-linker (formula IV) on each of the two cysteines of the C-terminal PCPPPPPC) MGVSDVPRDLEVVAATPTSLLISWSDDYHAHRYYRITYGETGGNSPVQEFTVPGEHVTATISGLKPGVDYTITVYAVTYDGEKAATDWSISINYRTPCPPPPPCHHHHHH

Reference: patent US20190077844A1 (published 2019)
